Laboratory results: paper PMC12613146
Where “and” joins values, the source holds several entries; their conditions need not be identical. Equal entries are not always repeated.

Target: ectodomain of the epidermal growth factor receptor, EGFR25-645 (human)
Experiment: BLI; biotinylated ligand (50 nM, 5 min) on streptavidin sensors, DDM proteomicelles of the membrane protein in the wells (six two-fold dilutions); 20 mM Tris-HCl, 300 mM KCl, 0.2% (w/v) DDM, 1 mg/ml BSA, pH 7.5; 22 °C; global fits, KD = koff/kon

Chain of TGF-α(GGS)2tFhuA (chain): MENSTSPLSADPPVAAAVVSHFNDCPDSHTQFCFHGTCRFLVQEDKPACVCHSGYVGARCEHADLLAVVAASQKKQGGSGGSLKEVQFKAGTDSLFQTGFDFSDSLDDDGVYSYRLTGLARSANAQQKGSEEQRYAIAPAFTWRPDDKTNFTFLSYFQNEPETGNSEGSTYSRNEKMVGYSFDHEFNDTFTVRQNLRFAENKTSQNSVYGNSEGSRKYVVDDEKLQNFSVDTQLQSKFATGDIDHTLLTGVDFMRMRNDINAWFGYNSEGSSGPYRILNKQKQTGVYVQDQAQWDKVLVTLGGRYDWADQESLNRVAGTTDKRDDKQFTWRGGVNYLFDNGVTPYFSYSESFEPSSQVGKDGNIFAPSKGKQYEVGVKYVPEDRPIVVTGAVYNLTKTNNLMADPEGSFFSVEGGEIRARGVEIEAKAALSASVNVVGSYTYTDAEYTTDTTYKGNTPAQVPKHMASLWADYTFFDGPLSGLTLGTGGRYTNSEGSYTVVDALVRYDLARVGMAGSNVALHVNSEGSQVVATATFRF

kon: 2600 M⁻¹ s⁻¹ and 2400 M⁻¹ s⁻¹ and 2500 M⁻¹ s⁻¹
Substance: TGF-α(GGS)2tFhuA
